# In paper doi:10.1101/2022.02.15.480544 (bioRxiv, 2022):
# Positions count from the first letter of the chain named. In names and notes the source's numbering stands.
# B1: Bacillus subtilis RecA, wild type, hexa-histidine fusion (natural protein, B. subtilis, UniProt P16971 11-348, looked up)
# chain: ALKQIEKQFGKGSIMKLGEKTDTRISTVPSGSLALDTALGIGGYPRGRIIEVYGPESSGKTTVALHAIAEVQQQGGQAAFIDAEHALDPVYAQKLGVNIEELLLSQPDTGEQALEIAEALVRSGAVDIVVVDSVAALVPKAEIEGDMGDSHVGLQARLMSQALRKLSGAINKSKTIAIFINQIREKVGVMFGNPETTPGGRALKFYSSVRLEVRRAEQLKQGNDVMGNKTKIKVVKNKVAPPFRTAEVDIMYGEGISKEGEIIDLGTELDIVQKSGSWYSYEEERLGQGRENAKQFLKENKDIMLMIQEQIREHYGLDNNGVVQQQAEETQEELEFEE
# B2: Bacillus subtilis RecA K70A (Walker A mutant, lowered ATP binding), hexa-histidine fusion (natural protein, B. subtilis, UniProt P16971 11-348, looked up)
# chain: B1 chain with K60A
# B3: Bacillus subtilis RecA K70R (Walker A mutant, no ATPase activity), hexa-histidine fusion (natural protein, B. subtilis, UniProt P16971 11-348, looked up)
# chain: B1 chain with K60R
# Molecular target: the molecule itself
# Experiment: mass photometry
row,Protein,stoichiometry N
1,B1,2
2,B2,2
3,B3,2
